From patent US11034736B2, “Anti-viral cnidarins” (priority 2014, dated 2021)
Like-named read-outs stand apart in the source and are kept apart here.

Tests used:
[1] = system: PBMC; assay: Cell viability of PBMC cultures (CellTiter formazan dye reduction); format: cell-based, human
Text: (§1) To test the anti-HIV activity of CNID1 against HIV primary isolates in fresh human cells, monocyte-tropic HIV-1 strain Ba-L was obtained from the NIAID AIDS Research and Reference Reagent Program (National Institutes of Health, Bethesda, Md.). The low passage HIV-1 pediatric isolate ROJO was derived as described previously (Buckheit et al., AIDS Res. Hum. Retroviruses, 10: 1497-1506 (1994)). Human peripheral blood mononuclear cells (PBMCs) and macrophages were isolated from hepatitis and HIV seronegative donors following Ficoll-Paque centrifugation as described elsewhere (Gartner & Popovic, Techniques in HIV Research, Aldovini, A. and Walker B., eds., pp. 59-63, Stockton Press, New York, 1990). Antiviral assays were carried out with 3-day-old phytohaemagglutinin/interleukin-2 stimulated PBMCs or 6-day-cultured monocyte/macrophages. […] HIV-1 replication in PBMC (ROJO) or monocyte macrophage (Ba-L) cultures were determined by measurement of reverse transcriptase activity (Buckheit et al., Antiviral Res., 21: 247-265 (1993)) in the supernatants or p24 antigen expression by ELISA (Coulter, Hialeah, Fla.), respectively. Cell viability by formazan dye reduction was determined in replicated cultures using the CellTiter reagent (Promega, Madison, Wis.). […]

[2] = system: HIV-1IIIB; assay: Viral attachment assay, cell-associated p24 antigen in HeLa CD4 LTR β-gal cells; format: cell-based
Experimental: (§2) Attachment and fusion assays were performed in HeLa-CD4-LTR-β-galactosidase cell lines as described previously (Gartner & Popovic, (1990), supra) with the following modifications. Following the interaction of HIV-1IIIIIB with HeLa CD4 LTR β-gal cells, viral attachment to HeLa CD4 LTR β-gal cells was detected as cell-associated p24 antigen following a 1 hour adsorption of virus and vigorous washing for removal of unbound virus. Fusion of HIV-1IIIIB with HeLa CD4 LTR β-gal cells was detected by chemiluminescence using a single-step lysis and detection method (Tropix Gal-screen, Bedford, Mass.) and results reported as EC50 values. Chicago Sky Blue, a polysulfonic acid dye inhibitor of HIV attachment and fusion, was used as a positive control for all assays (Clanton et al., J. Acquired Immune Defic. Syndr., 5: 771-781 (1992)).

[3] = system: HeLa CD4 LTR β-galactosidase cells; assay: Cytotoxicity in the attachment and fusion assays; format: cell-based
Experimental: (§3) The HIV reverse transcriptase inhibitor 3′-Azido-3′-deoxythymidine (AZT) was used as a positive control. All assays were carried out in triplicate for all viruses and cells.
as §2

[4] = system: human PBMCs; assay: Toxicity in PHA-stimulated human PBMCs, XTT cell viability; conditions: human PBMCs, XTT, 7 days
Experimental: The cultures were incubated for 7 days at 37° C./5% CO2. Efficacy of the compounds was evaluated by measuring the amount of reverse transcriptase in the culture supernatant and toxicity was evaluated using XTT to measure cell viability. AZT was evaluated in parallel as an assay control.

[5] = system: HIV-1IIIB; assay: Viral fusion assay, chemiluminescence in HeLa CD4 LTR β-gal cells; format: cell-based
Experimental: as §2

[6] = molecular target: HIV-1IIIB gp120 (Human immunodeficiency virus type 1 group M subtype B, UniProt P04578); conditions: ELISA
Experimental: High protein binding Greiner 96-well plates (VWR, Bridgeport, N.J.) were coated with 1 pmol/well of recombinant HIV-1IIIIB gp120 (Immuno Diagnostics, Woburn, Mass.) or recombinant HIV-1HXB2 gp41 (Vybion Inc., Ithaca, N.Y.) at 4° C. overnight. The wells were emptied and then blocked with 200 μl/well of 3% non-fat dry milk (Bio-Rad, Hercules, Calif.) blocking solution for 2 hrs. A control plate was incubated with blocking solution only. After washing three times with PBST, 0.5-log10 serial dilutions of rCNID-1-Trx were added to triplicate wells of gp120−, gp41− and the blocking solution control plate, and the plates were incubated for 2 hrs. The plates were washed with PBST and 100 W/well of a 1:250 dilution of polyclonal rabbit anti-CNID-1 antibody was added and allowed to incubate for 1 hr, followed by three washes with PBST. Goat anti-rabbit (H+L), peroxidase conjugated secondary antibody (Thermo Fisher Scientific Inc., Rockford, Ill.) was added to each well (100 μl/well of a 1:1000 dilution) and further incubated for 1 hr, followed by three washes with PBST. The TMB 2-component Microwell peroxidase substrate kit (KPL Inc., Gaithersburg, Md.) was used for peroxidase detection: 100 W/well, incubation for 5-10 min and the reaction was stopped by addition of 0.5M HCl (100 W/well) before reading the absorbance at 450 nm.
Briefly, 100 ng/wells of glycosylated recombinant HIV-1IIIB gp120 (Immuno Diagnostics, Woburn, Mass.) or nonglycosylated HIV-1 gp120 (MyBioSource LLC, San Diego, Calif.) was added to the wells of two 96-well plates, and incubated overnight at 4° C. The plates were washed and blocked as previously described. Serial dilutions of rCNID-1-Trx were added (100 W/well); incubation done for 2 hrs. The plates were then washed and visualized using anti-CNID-1 polyclonal antibodies as above.

[7] = system: HIV-1ROJO; assay: HIV-1 ROJO replication in human PBMC cultures, supernatant reverse transcriptase activity; format: cell-based; conditions: T-tropic primary isolate
Text: as §1

[8] = system: HIV-1RF; assay: XTT-tetrazolium anti-HIV assay, HIV-1RF in CEM-SS cells; format: cell-based; conditions: HIV-1RF, T-tropic laboratory strain, CEM-SS cells, XTT, 6 days
Experimental: A 2,3-bis-[2-methoxy-4-nitro-5-sulfophenyl]-2H-tetrazolium-5-carboxanilide inner salt (XTT)-tetrazolium-based assay was used to determine the anti-HIV activity of CNID-1, -2 and -3 against a T-tropic laboratory strain (HIV-1RF) in T-lymphoblastic CEM-SS cells as described previously (Gulakowski et al., J. Virol. Methods, 33: 87-100 (1991)). CEM-SS cells were maintained in RPMI 1640 media without phenol red and supplemented with 10% fetal bovine serum (BioWhittaker), 2 mM L-glutamine (BioWhittaker), and 50 μg/ml gentamicin (BioWhittaker) (complete medium). Exponentially growing cells were washed and resuspended in complete medium, and a 50 μl aliquot containing 5×10^3 cells was added to individual wells of a 96-well round-bottom microtiter plate containing serial dilutions of the respective cnidarin protein in a volume of 100 μl of medium. Stock supernatants of HIV-1RF were diluted in complete medium to yield sufficient cytopathicity (80-90% cell kill in 6 days), and a 50 μl aliquot was added to appropriate wells. Plates were incubated for 6 days at 37° C. and then stained for cellular viability using XTT.
as §3

[9] = system: HIV-1Ba-L; assay: HIV-1 Ba-L replication in human primary macrophage cultures, p24 ELISA; format: cell-based; conditions: M-tropic, human primary macrophages
Text: as §1

B1: CNID-1: HIV-inhibitory protein from soft coral Synthecium sp.; 172 amino acids, 18,122 Da, SEQ ID NO: 1 (protein)
chain: GRATLGQLKTSTIPPVTFDVPFDGANIPQDVRFTIATVNGGKGALYNAELGESAGHTIVLESDGDHPIPGTFDPKSGRGLDYLPRGLVLFSSHNYVGNMKMYTEPDSDITADFPPGTPFGVSSAITGEGSAFQLNTGIDHTGEFEIIPPNTKRNLAGVFDNEIRSVSPTGGK
CC50 [1]: 144 nM
Inhibition of viral attachment to the cell [2]: did not inhibit attachment
EC50 ([2]; read-out: Inhibition of Attachment EC50): > 55.2 nM
CC50 ([3]; attachment assay, read-out: Inhibition of Attachment CC50): > 55.2 nM
CC50 ([3]; fusion assay, read-out: Inhibition of Fusion CC50): > 55.2 nM
TC50 [4]: >0.5 µg/mL
Inhibition of viral fusion [5]: inhibit HIV viral fusion
EC50 ([5]; read-out: Inhibition of Fusion EC50): 1.49 nM
Binding to glycosylated versus non-glycosylated gp120 ([6]; 100 ng/well): bound better to glycosylated gp120 as compared to non-glycosylated gp120
Binding to gp120 ([6]; 100 ng/well gp120): specific binding to viral glycoprotein gp120 in a concentration-dependent manner
EC50 [7]: 3.97 nM
EC50 [8]: 0.0845 nM
EC50 [9]: 1.05 nM
